Data taken from PMC9758056.

Molecular target: Taxol-stabilized microtubules from porcine brain tubulin, P02550
Assay: microtubule pelleting assay
Settings: chain shown with the change;, read off a plot

Chain of Taxol-stabilized microtubules from porcine brain tubulin, P02550 (P02550 other isoform, or with tags, fused parts or gaps, chain 1 of 2): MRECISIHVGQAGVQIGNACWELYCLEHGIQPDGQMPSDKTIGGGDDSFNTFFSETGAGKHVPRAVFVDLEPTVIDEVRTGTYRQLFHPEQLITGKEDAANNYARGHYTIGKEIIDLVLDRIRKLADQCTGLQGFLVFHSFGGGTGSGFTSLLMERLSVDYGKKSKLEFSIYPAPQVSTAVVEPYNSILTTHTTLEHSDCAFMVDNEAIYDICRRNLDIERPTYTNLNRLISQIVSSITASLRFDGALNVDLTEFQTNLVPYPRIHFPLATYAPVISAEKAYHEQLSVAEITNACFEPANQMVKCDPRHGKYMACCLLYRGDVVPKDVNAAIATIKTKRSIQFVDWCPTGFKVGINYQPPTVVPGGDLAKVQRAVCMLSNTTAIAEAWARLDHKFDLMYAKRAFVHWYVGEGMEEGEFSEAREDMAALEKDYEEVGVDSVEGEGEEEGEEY
Chain of Taxol-stabilized microtubules from porcine brain tubulin, P02550 (chain, as listed by the source, chain 2 of 2): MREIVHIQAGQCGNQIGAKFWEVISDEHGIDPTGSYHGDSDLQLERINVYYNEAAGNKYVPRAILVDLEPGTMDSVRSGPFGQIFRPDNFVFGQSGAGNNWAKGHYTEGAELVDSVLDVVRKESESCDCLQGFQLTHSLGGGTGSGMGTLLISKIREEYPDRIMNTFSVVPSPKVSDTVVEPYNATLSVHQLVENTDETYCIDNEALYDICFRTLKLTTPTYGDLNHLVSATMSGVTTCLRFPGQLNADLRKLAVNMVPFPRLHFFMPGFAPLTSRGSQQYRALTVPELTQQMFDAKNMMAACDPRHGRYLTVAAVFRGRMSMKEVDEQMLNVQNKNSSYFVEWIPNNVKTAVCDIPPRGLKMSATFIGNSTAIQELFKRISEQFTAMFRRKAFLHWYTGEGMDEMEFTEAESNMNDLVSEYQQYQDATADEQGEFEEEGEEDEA

Row | Binder | response (fraction microtubule bound) (parent: est. 0.78) | response (fraction microtubule bound) (parent: est. 0.70)
1 | LRRK2^RCKW (catalytic half of LRRK2: ROC, COR, kinase and WD40 domains), wild type, Q5S007 K1358A; K1359A (protein) KKAVPYNRMKLMIVGNTGSGKTTLLQQLMKTAASDLGMQSATVGIDVKDWPIQIRDKRKRDLVLNVWDFAGREEFYSTHPHFMTQRALYLAVYDLSKGQAEVDAMKPWLFNIKARASSSPVILVGTHLDVSDEKQRKACMSKITKELLNKRGFPAIRDYHFVNATEESDALAKLRKTIINESLNFKIRDQLVVGQLIPDCYVELEKIILSERKNVPIEFPVIDRKRLLQLVRENQLQLDENELPHAVHFLNESGVLLHFQDPALQLSDLYFVEPKWLCKIMAQILTVKVEGCPKHPKGIISRRDVEKFLSKKRKFPKNYMSQYFKLLEKFQIALPIGEEYLLVPSSLSDHRPVIELPHCENSEIIIRLYEMPYFPMGFWSRLINRLLEISPYMLSGRERALRPNRMYWRQGIYLNWSPEAYCLVGSEVLDNHPESFLKITVPSCRKGCILLGQVVDHIDSLMEEWFPGLLEIDICGEGETLLKKWALYSFNDGEEHQKILLDDLMKKAEEGDLLVNPDQPRLTIPISQIAPDLILADLPRNIMLNNDELEFEQAPEFLLGDGSFGSVYRAAYEGEEVAVKIFNKHTSLRLLRQELVVLCHLHHPSLISLLAAGIRPRMLVMELASKGSLDRLLQQDKASLTRTLQHRIALHVADGLRYLHSAMIIYRDLKPHNVLLFTLYPNAAIIAKIADYGIAQYCCRMGIKTSEGTPGFRAPEVARGNVIYNQQADVYSFGLLLYDILTTGGRIVEGLKFPNEFDELEIQGKLPDPVKEYGCAPWPMVEKLIKQCLKENPQERPTSAQVFDILNSAELVCLTRRILLPKNVIVECMVATHHNSRNASIWLGCGHTDRGQLSFLDLNTEGYTSEEVADSRILCLALVHLPVEKESWIVSGTQSGTLLVINTEDGKKRHTLEKMTDSVTCLYCNSFSKQSKQKNFLLVGTADGKLAIFEDKTVKLKGAAPLKILNIGNVSTPLMCLSESTNSTERNVMWGGCGTKIFSFSNDFTIQKLIETRTSQLFSYAAFSDSNIITVVVDTALYIAKQNSPVVEVWDKKTEKLCGLIDCVHFLREVMVKENKESKHKMSYSGRVKTLCLQKNTALWIGTGGGHILLLDLSTRRLIRVIYNFCNSVRVMMTAQLGSLKNVMLVLGYNRKNTEGTQKQKEIQSCLTVWDINLPHEVQNLEKHIEVRKELAEKMRRTSVE | 0.48 | –
2 | LRRK2^RCKW (catalytic half of LRRK2: ROC, COR, kinase and WD40 domains), wild type, Q5S007 S2345D (protein) KKAVPYNRMKLMIVGNTGSGKTTLLQQLMKTKKSDLGMQSATVGIDVKDWPIQIRDKRKRDLVLNVWDFAGREEFYSTHPHFMTQRALYLAVYDLSKGQAEVDAMKPWLFNIKARASSSPVILVGTHLDVSDEKQRKACMSKITKELLNKRGFPAIRDYHFVNATEESDALAKLRKTIINESLNFKIRDQLVVGQLIPDCYVELEKIILSERKNVPIEFPVIDRKRLLQLVRENQLQLDENELPHAVHFLNESGVLLHFQDPALQLSDLYFVEPKWLCKIMAQILTVKVEGCPKHPKGIISRRDVEKFLSKKRKFPKNYMSQYFKLLEKFQIALPIGEEYLLVPSSLSDHRPVIELPHCENSEIIIRLYEMPYFPMGFWSRLINRLLEISPYMLSGRERALRPNRMYWRQGIYLNWSPEAYCLVGSEVLDNHPESFLKITVPSCRKGCILLGQVVDHIDSLMEEWFPGLLEIDICGEGETLLKKWALYSFNDGEEHQKILLDDLMKKAEEGDLLVNPDQPRLTIPISQIAPDLILADLPRNIMLNNDELEFEQAPEFLLGDGSFGSVYRAAYEGEEVAVKIFNKHTSLRLLRQELVVLCHLHHPSLISLLAAGIRPRMLVMELASKGSLDRLLQQDKASLTRTLQHRIALHVADGLRYLHSAMIIYRDLKPHNVLLFTLYPNAAIIAKIADYGIAQYCCRMGIKTSEGTPGFRAPEVARGNVIYNQQADVYSFGLLLYDILTTGGRIVEGLKFPNEFDELEIQGKLPDPVKEYGCAPWPMVEKLIKQCLKENPQERPTSAQVFDILNSAELVCLTRRILLPKNVIVECMVATHHNSRNASIWLGCGHTDRGQLSFLDLNTEGYTSEEVADSRILCLALVHLPVEKESWIVSGTQSGTLLVINTEDGKKRHTLEKMTDSVTCLYCNSFSKQSKQKNFLLVGTADGKLAIFEDKTVKLKGAAPLKILNIGNVSTPLMCLSESTNSTERNVMWGGCGTKIFSFSNDFTIQKLIETRTSQLFDYAAFSDSNIITVVVDTALYIAKQNSPVVEVWDKKTEKLCGLIDCVHFLREVMVKENKESKHKMSYSGRVKTLCLQKNTALWIGTGGGHILLLDLSTRRLIRVIYNFCNSVRVMMTAQLGSLKNVMLVLGYNRKNTEGTQKQKEIQSCLTVWDINLPHEVQNLEKHIEVRKELAEKMRRTSVE | – | 0.53

Results, then the binder that gave them:

Row | response (fraction microtubule bound) (parent: est. 0.78) | response (fraction microtubule bound) (parent: est. 0.70) | Binder
3 | 0.35 | – | LRRK2^RCKW (catalytic half of LRRK2: ROC, COR, kinase and WD40 domains), wild type, Q5S007 R1384A; K1385A (protein) KKAVPYNRMKLMIVGNTGSGKTTLLQQLMKTKKSDLGMQSATVGIDVKDWPIQIRDKAARDLVLNVWDFAGREEFYSTHPHFMTQRALYLAVYDLSKGQAEVDAMKPWLFNIKARASSSPVILVGTHLDVSDEKQRKACMSKITKELLNKRGFPAIRDYHFVNATEESDALAKLRKTIINESLNFKIRDQLVVGQLIPDCYVELEKIILSERKNVPIEFPVIDRKRLLQLVRENQLQLDENELPHAVHFLNESGVLLHFQDPALQLSDLYFVEPKWLCKIMAQILTVKVEGCPKHPKGIISRRDVEKFLSKKRKFPKNYMSQYFKLLEKFQIALPIGEEYLLVPSSLSDHRPVIELPHCENSEIIIRLYEMPYFPMGFWSRLINRLLEISPYMLSGRERALRPNRMYWRQGIYLNWSPEAYCLVGSEVLDNHPESFLKITVPSCRKGCILLGQVVDHIDSLMEEWFPGLLEIDICGEGETLLKKWALYSFNDGEEHQKILLDDLMKKAEEGDLLVNPDQPRLTIPISQIAPDLILADLPRNIMLNNDELEFEQAPEFLLGDGSFGSVYRAAYEGEEVAVKIFNKHTSLRLLRQELVVLCHLHHPSLISLLAAGIRPRMLVMELASKGSLDRLLQQDKASLTRTLQHRIALHVADGLRYLHSAMIIYRDLKPHNVLLFTLYPNAAIIAKIADYGIAQYCCRMGIKTSEGTPGFRAPEVARGNVIYNQQADVYSFGLLLYDILTTGGRIVEGLKFPNEFDELEIQGKLPDPVKEYGCAPWPMVEKLIKQCLKENPQERPTSAQVFDILNSAELVCLTRRILLPKNVIVECMVATHHNSRNASIWLGCGHTDRGQLSFLDLNTEGYTSEEVADSRILCLALVHLPVEKESWIVSGTQSGTLLVINTEDGKKRHTLEKMTDSVTCLYCNSFSKQSKQKNFLLVGTADGKLAIFEDKTVKLKGAAPLKILNIGNVSTPLMCLSESTNSTERNVMWGGCGTKIFSFSNDFTIQKLIETRTSQLFSYAAFSDSNIITVVVDTALYIAKQNSPVVEVWDKKTEKLCGLIDCVHFLREVMVKENKESKHKMSYSGRVKTLCLQKNTALWIGTGGGHILLLDLSTRRLIRVIYNFCNSVRVMMTAQLGSLKNVMLVLGYNRKNTEGTQKQKEIQSCLTVWDINLPHEVQNLEKHIEVRKELAEKMRRTSVE
4 | – | 0.1 | LRRK2^RCKW (catalytic half of LRRK2: ROC, COR, kinase and WD40 domains), wild type, Q5S007 R1731D; S2345D (protein) KKAVPYNRMKLMIVGNTGSGKTTLLQQLMKTKKSDLGMQSATVGIDVKDWPIQIRDKRKRDLVLNVWDFAGREEFYSTHPHFMTQRALYLAVYDLSKGQAEVDAMKPWLFNIKARASSSPVILVGTHLDVSDEKQRKACMSKITKELLNKRGFPAIRDYHFVNATEESDALAKLRKTIINESLNFKIRDQLVVGQLIPDCYVELEKIILSERKNVPIEFPVIDRKRLLQLVRENQLQLDENELPHAVHFLNESGVLLHFQDPALQLSDLYFVEPKWLCKIMAQILTVKVEGCPKHPKGIISRRDVEKFLSKKRKFPKNYMSQYFKLLEKFQIALPIGEEYLLVPSSLSDHRPVIELPHCENSEIIIRLYEMPYFPMGFWSRLINRLLEISPYMLSGRERALRPNDMYWRQGIYLNWSPEAYCLVGSEVLDNHPESFLKITVPSCRKGCILLGQVVDHIDSLMEEWFPGLLEIDICGEGETLLKKWALYSFNDGEEHQKILLDDLMKKAEEGDLLVNPDQPRLTIPISQIAPDLILADLPRNIMLNNDELEFEQAPEFLLGDGSFGSVYRAAYEGEEVAVKIFNKHTSLRLLRQELVVLCHLHHPSLISLLAAGIRPRMLVMELASKGSLDRLLQQDKASLTRTLQHRIALHVADGLRYLHSAMIIYRDLKPHNVLLFTLYPNAAIIAKIADYGIAQYCCRMGIKTSEGTPGFRAPEVARGNVIYNQQADVYSFGLLLYDILTTGGRIVEGLKFPNEFDELEIQGKLPDPVKEYGCAPWPMVEKLIKQCLKENPQERPTSAQVFDILNSAELVCLTRRILLPKNVIVECMVATHHNSRNASIWLGCGHTDRGQLSFLDLNTEGYTSEEVADSRILCLALVHLPVEKESWIVSGTQSGTLLVINTEDGKKRHTLEKMTDSVTCLYCNSFSKQSKQKNFLLVGTADGKLAIFEDKTVKLKGAAPLKILNIGNVSTPLMCLSESTNSTERNVMWGGCGTKIFSFSNDFTIQKLIETRTSQLFDYAAFSDSNIITVVVDTALYIAKQNSPVVEVWDKKTEKLCGLIDCVHFLREVMVKENKESKHKMSYSGRVKTLCLQKNTALWIGTGGGHILLLDLSTRRLIRVIYNFCNSVRVMMTAQLGSLKNVMLVLGYNRKNTEGTQKQKEIQSCLTVWDINLPHEVQNLEKHIEVRKELAEKMRRTSVE
